The values below come from paper PMC2991502 (Cytoskeleton (Hoboken, N.J.), 2010).

The target of this experiment is Rabbit skeletal muscle actin (rabbit, UniProt P68135 1-377). Kind of experiment: co-sedimentation.

B1: FRL2 FH1-FH2 I649A (amino acids 447-945 of the mouse protein) (domain or fragment)
chain: TSNQVHTLRRLIKEKEEAFQRRCHLEPSARGLESMGGEALARVGPTELTEGIPPSDLDLLAPAPPTEETLPLPPPPAPPLPPPPPPLPDKCPPAPPLPGAAPSVVLTVGLSAIRIKKPIKTKFRLPVFNWTALKPNQINGTVFSELDDEKILEDLDLDRFEELFKTKAQGPALDLICSKNKTAQKAASKVTLLEANRAKNLAATLRKAGRSAEEICRAIHTFDLQTLPVDFVECLMRFLPTEAEVKLLRQYERERQPLEELAAEDRFMLLFSKVERLTQRMAGMAFLGNFQDNLQMLTPQLNAIIAASASVKSSQKLKQMLEIILALGNYMNSSKRGAVYGFKLQSLDLLLDTKSTDRKMTLLHFIALTVKEKYPELANFWQELHFVEKAAAVSLENVLLDVKELGRGMELIRRECSIHDNSVLRNFLSTNEGKLDKLQRDAKTAEEAYNAVVRYFGESPKTTPPSVFFPVFVRFIRSYKEAEQENEARKKQEEVMREK
As for B1, the binding result is reported as “binds”.
